Results from paper PMC6687201, “Atg11 tethers Atg9 vesicles to initiate selective autophagy” (PLoS Biology, 2019).

Tests used:
[1] = biological target: the molecule itself; experiment: AUC; sedimentation velocity of purified Atg11-His6, analysed with SEDFIT; also at 1.63 mg/ml and 0.15 mg/ml
[2] = biological target: T1, Atg9^core reconstituted in proteoliposomes (yeast, UniProt Q12142 281-779); experiment: co-floatation with proteoliposomes; Atg9-PLs mixed with one interaction partner in a Nycodenz step gradient, ultracentrifugation, floated fraction on SDS-PAGE; SUVs lacking Atg9^core as control; settings: both partners purified
T1 construct: Atg9 core, yeast; Liposomes: 20 mol% cholesterol, 10 mol% POPE, 60 mol% POPC, 10 mol% POPS; protein:lipid 1:200; also called Atg9-PLs; Atg9 vesicles; source: reconstituted in liposomes by rapid dilution
T1 sequence (looked up): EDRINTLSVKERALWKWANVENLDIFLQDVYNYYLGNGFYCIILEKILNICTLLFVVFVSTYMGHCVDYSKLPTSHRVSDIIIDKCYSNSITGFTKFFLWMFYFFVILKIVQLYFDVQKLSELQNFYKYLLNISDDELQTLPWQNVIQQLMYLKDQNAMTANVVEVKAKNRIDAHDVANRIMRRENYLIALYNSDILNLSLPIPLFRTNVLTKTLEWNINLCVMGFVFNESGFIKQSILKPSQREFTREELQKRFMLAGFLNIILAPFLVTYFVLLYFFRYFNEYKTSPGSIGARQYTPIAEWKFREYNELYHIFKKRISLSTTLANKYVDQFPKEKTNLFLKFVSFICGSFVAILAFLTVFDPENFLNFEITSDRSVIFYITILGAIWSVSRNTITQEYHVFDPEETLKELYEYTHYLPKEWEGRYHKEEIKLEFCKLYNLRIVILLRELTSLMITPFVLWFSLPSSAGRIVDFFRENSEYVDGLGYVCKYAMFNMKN

stoichiometry N [2]: 1
B1: recombinant purified Atg11 (Atg11-His6) (natural protein, yeast)
chain: GPMADADEYSTAPTQQEITPLQTTATIINAISGECITTNVDFFVSLDKFKQFIARKWKIPPDQLLILLPYGNKLKPSMFKELLINRSFTLNDFYVYDRRLFSLVSKPTPTNLLTSKDSNPMNSPNSNDLTETLEYLIKNSHISQYQGSDTIMIKPMPSPLEDADVDLSRLNYHSVTSLLTTNLGWLSALEIDVHYFKSLIPDIIAHIKRIFDGLTVCSQYLKLYCFDVESLYNSNVQFLNQLVDNGMTSKWEKCFNDTLSKLTALEGDSLQKFINIESLLENEKSVKILNHSINGKLNKIKREIDENASFRDIITVNIDRLRQMFTPNESKFELEDQMAESFEVLVSEMRTRSRNVLDKEEEEFNSQEFLKSMNVMLEKDKKESVKTLFTISQALYSQIGELIDLKKSLQKHAVAILGNIAFTQMEILGIKRLLLNECNKDLELYKKYEVEFAQVEDLPLIYGLYLIEKYRRLSWFQQILSFISNFNQDLELFKQNELRTRNKWVKNFGSIATVFCEDLLSSSDFKRLNEYHSHTSPPNEDEEDENENSIANYRQDLVKVSQAIDNYMTQIKETDVSEPIIDLLSKTLFETKRFHIIYSNFKNNNNNSSNGNSISPEGSIALKSDDVVKGYKTRIKKLESLLHEFQYSDIGHWPQGVLNTHLKPFRGSATSINKKKFLGASVLLEPANISEVNIDSVSQANNHQIQELESNVDDLLHQLQLLKEENNRKSMQISEMGKKISDLEVEKTAYRETLTNLNQELARLTNEEQSHRTEIFTLNASFKKQLNDIISQDNEKIEKLTGDYDDVSKSRERLQMDLDESNKKHEQEVNLLKADIERLGKQIVTSEKSYAETNSSSMEKGEKFETIPLAEDPGRENQISAYTQTLQDRIFDIISTNIFILENIGLLLTFDNNNNIQIRRVKGLKKGTAQSNILDESTQMLDAHDNSLIKSPVFQKLKDEYELIKSVANGSEKDTQQSIFLGNITQLYDNKLYEVAVIRRFKDIETLAKKLTKENKIKRTLLERFQREKVTLRNFQIGDLALFLPTRENVNSVGSMSSSTSSLSSSFSSVDLSTPPPLDAMSIQSSPSVIHSNVINQASISGRDKNKLMRPWAAFTAFEESTRYFLKDEKGLTKGKEWFVGRIVTLEHFVADSPSNNPFRLPKGSVWFQVTAVVVSYQGV
modifications: Atto565 label in the GUV experiments
notes: N-terminal residual glycine-proline from PreScission protease digestion; Atg11, yeast; expressed from pCoofy37-Atg11; measured molecular weight 136 kDa; also called His-tagged Atg11; Atg11^Atto565; source: E. coli BL21 (DE3), coexpressed with chaperones from pG-KJE8, purified (Ni-NTA, PreScission digestion, gel filtration); not shown: His6, C-terminal, kept
stoichiometry N [1]: 2
